In article PMC6019379, “RecA-like domain 2 of DNA-dependent ATPase A domain, a SWI2/SNF2 protein, mediates conformational integrity and ATP hydrolysis” (Bioscience Reports, 2018) one finds Kd data, which are given here for one molecule.

Substitutions are numbered along the chain they refer to.

Conditions in all cases: protein: recombinant; tags: His (Ni-NTA, pET-14b); hairpin
The target in one series is T1, ADAAD T560A (Bos taurus (bovine), UniProt Q9TTA5 221-940, T780A).
T1 sequence: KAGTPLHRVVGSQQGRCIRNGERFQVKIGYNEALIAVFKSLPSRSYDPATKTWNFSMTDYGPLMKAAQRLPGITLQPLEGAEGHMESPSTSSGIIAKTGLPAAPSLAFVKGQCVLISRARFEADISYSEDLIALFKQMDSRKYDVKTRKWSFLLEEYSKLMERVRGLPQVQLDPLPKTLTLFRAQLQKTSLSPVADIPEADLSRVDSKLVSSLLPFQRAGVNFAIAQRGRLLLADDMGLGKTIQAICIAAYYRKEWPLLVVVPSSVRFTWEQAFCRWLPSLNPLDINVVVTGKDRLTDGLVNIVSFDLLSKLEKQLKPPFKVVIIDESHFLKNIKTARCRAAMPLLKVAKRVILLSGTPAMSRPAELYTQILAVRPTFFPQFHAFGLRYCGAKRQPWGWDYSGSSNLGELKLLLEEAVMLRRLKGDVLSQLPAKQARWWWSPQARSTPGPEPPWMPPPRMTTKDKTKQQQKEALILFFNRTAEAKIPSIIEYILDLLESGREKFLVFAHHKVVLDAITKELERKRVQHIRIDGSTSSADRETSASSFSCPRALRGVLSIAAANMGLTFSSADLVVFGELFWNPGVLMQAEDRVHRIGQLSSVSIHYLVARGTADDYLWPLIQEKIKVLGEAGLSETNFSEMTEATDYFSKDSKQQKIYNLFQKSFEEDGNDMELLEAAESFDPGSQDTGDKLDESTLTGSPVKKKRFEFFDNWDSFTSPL
In words: intrinsic tryptophan fluorescence titration; saturating ATP; Fluorescence titration (ex 295 nm, em 340 nm), one-site saturation fit; buffer, salt, pH and temperature not given in the material. Wild-type ADAAD Kd values are cited from ref 24 and not listed.

The target in the next series is T2, ADAAD R595A (Bos taurus (bovine), UniProt Q9TTA5 221-940, R815A).
T2 sequence: T1 sequence with A560T, R595A
In words: intrinsic tryptophan fluorescence titration; no ATP; Fluorescence titration (ex 295 nm, em 340 nm), one-site saturation fit; buffer, salt, pH and temperature not given in the material. Wild-type ADAAD Kd values are cited from ref 24 and not listed.

For the next series, the target named is T3, ADAAD D591H (Bos taurus (bovine), UniProt Q9TTA5 221-940, D811H).
T3 sequence: T1 sequence with A560T, D591H
The description is as above.

Usually Kd stands for the concentration at which binding is half-saturated.

B1: slDNA (stem-loop DNA) (structured_DNA)
DNA: GCGCAATTGCGCTCGACGATTTTTTAGCGCAATTGCGC
As for B1, the figures for the Kd in the series with ADAAD T560A, in the series with ADAAD R595A and in the series with ADAAD D591H were 1.4 ± 0.3 nM, 24 ± 0.6 nM and 21.3 ± 7 nM, respectively.
